Data reported in article PMC3785714 (Biochemical Society transactions, 2012).

Target: the molecule itself

B1: p150CC1 (residues 221-509) of dynactin p150Glued (domain or fragment, UniProt P13496 221-509, looked up)
chain: ALLEAQKTSAELQAQLADLTEKLETLKQRRNEDKERLREFDKMKIQFEQLQEFRTKIMGAQASLQKELLRAKQEAKDAIEAKEQHAQEMADLADNVEMITLDKEMAEEKADTLQLELESSKERIEELEVDLELLRSEMQNKAESAIGNISGGGDSPGLSTYEFKQLEQQNIRLKETLVRLRDLSAHDKHDIQKLSKELEMKRSEVTELERTKEKLSAKIDELEAIVADLQEQVDAALGAEEMVEQLAEKKMELEDKVKLLEEEIAQLEALEEVHEQLVESNHELELDLR
- stoichiometry N: 2
